Results from patent US20210079109A1 (Regeneron, published 2021).

T1: human CD63 (human, UniProt P08962 2-238)
T1 construct: stably transfected in NIH3T3/hCD63; The cell line is named under assay; also called hCD63
T1 sequence: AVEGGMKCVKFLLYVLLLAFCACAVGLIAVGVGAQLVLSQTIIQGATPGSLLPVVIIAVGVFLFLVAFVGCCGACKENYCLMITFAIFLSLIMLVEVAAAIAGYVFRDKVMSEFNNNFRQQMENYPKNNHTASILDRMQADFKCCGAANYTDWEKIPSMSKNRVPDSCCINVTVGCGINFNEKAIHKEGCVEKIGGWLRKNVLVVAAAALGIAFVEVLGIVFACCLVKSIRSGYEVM


How the values were obtained:
human CD63 [1] = molecular target: T1, human CD63; assay: ECL, NIH3T3/hCD63 cells
Experimental: (§1) LNCAP cells were determined to have a lower human CD63 copy number than U87MG cells. Non-transfected NIH3T3 cells, which have no detectable expression of human CD63 by fluorescence activated cell sorting (FACS), were included as a negative control.
(§2) Briefly, cell lines were rinsed once in PBS buffer without Ca²⁺/Mg²⁺ and incubated for 10 minutes at 37° C. with Enzyme Free Cell Dissociation Solution (Millipore, Cat #S-004-C) to detach the cells. Cells were then washed once with PBS with Ca²⁺/Mg²⁺ and counted with a Cellometer™ Auto T4 cell counter (Nexcelom Bioscience, LLC). Approximately 2.0×10⁴ NIH3T3/hCD63, LNCAP, U87MG or NIH3T3 cells were seeded separately onto 96-well carbon electrode plates […]) and were then incubated for one hour at 37° C. Nonspecific binding sites were blocked with 2% BSA (w/v) in PBS with Ca²⁺/Mg²⁺ for one hour at room temperature (RT). Solutions containing anti-CD63 antibodies or isotype control antibodies at a range of concentrations (1.7 pM to 100 nM) in 0.5% BSA (w/v) in PBS with Ca²⁺/Mg²⁺, as well as control buffer alone, were then added in duplicate to the plate-bound NIH3T3/hCD63, LNCAP, U87MG or NIH3T3 cells and incubated for one hour at RT. Plates were subsequently washed to remove unbound antibodies using an AquaMax2000 plate washer with a cell washing head (MDS Analytical Technologies). […] Plates were washed and then incubated with Read Buffer (MSD, Cat #R92TD-2) according to the manufacturer's instructions. Luminescent signals were measured using a SECTOR Imager (MSD).

[2] = molecular target: T2, recombinant human CD63 extracellular loop 2 expressed with a C-terminal human Fc tag (human); assay: SPR Biacore, mAb captured, 37C
T2 construct: also called hCD63 EC loop 2-hFc; human CD63 EC loop 2-Fc
Experimental: (§3) Equilibrium dissociation constants (KD) for different CD63 (EC2) loop reagents binding to purified anti-CD63 monoclonal antibodies were determined using a real-time surface plasmon resonance based Biacore T200 biosensor or Biacore 2000 biosensor. All binding studies were performed in 10 mM HEPES, 150 mM NaCl, 3 mM EDTA, and 0.05% v/v Surfactant Tween-20, pH 7.4 (HBS-ET) running buffer at 25° C. and 37° C. The Biacore CMS sensor chip surface was first derivatized by amine coupling with either a rabbit anti-mouse Fc specific polyclonal antibody (GE Healthcare, Cat #BR100838) or an anti-human Fab kit (GE Healthcare, Cat #28958325) to capture anti-CD63 monoclonal antibodies. […] The association rate (Kₐ) and dissociation rate (kd) were determined by fitting the real-time binding sensorgrams to a 1:1 binding model with mass transport limitation using Scrubber 2.0c curve-fitting software. Binding dissociation equilibrium constant (KD) and dissociative half-life (t½) were calculated from the kinetic rates as: […]
(§4) Binding kinetics parameters for human CD63 EC loop 2 protein binding to different anti-CD63 monoclonal antibodies of the invention at 25° C. and 37° C. are shown in Tables 6 through 9.

[3] = molecular target: T3, recombinant human CD63 extracellular loop 2 expressed with a C-terminal Myc-Myc-hexahistidine (human); assay: SPR Biacore, mAb captured, 37C
T3 construct: also called hCD63 EC loop 2-MMH; human CD63 EC loop 2-MMH
Experimental: as §3, §4

human CD63 [4] = molecular target: T1, human CD63; assay: ECL, LNCAP cells
Experimental: as §1, §2

human CD63 [5] = molecular target: T1, human CD63; assay: ECL, U87MG cells
Experimental: as §1, §2

[6] = molecular target: T2, recombinant human CD63 extracellular …; assay: SPR Biacore, mAb captured, 25C
Experimental: as §3, §4

[7] = molecular target: T3, recombinant human CD63 extracellular …; assay: SPR Biacore, mAb captured, 25C
Experimental: as §3, §4

T3 sequence (chain, as listed by the source limits assumed): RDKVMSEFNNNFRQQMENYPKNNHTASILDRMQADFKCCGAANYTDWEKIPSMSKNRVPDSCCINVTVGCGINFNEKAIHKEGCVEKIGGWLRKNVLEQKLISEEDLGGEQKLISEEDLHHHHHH
T2 sequence (chain, as listed by the source limits assumed): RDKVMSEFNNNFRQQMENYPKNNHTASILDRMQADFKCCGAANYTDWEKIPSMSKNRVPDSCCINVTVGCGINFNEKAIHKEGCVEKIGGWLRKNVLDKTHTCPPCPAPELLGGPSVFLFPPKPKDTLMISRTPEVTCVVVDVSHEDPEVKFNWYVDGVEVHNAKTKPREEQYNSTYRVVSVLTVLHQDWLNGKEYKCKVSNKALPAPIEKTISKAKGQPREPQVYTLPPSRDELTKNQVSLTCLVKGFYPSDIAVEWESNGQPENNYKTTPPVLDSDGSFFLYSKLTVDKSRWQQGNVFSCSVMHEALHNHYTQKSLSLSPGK

Binder | EC50 (human CD63 [1]) [nM] | binding ratio at 3.7 nM vs NIH3T3 (human CD63 [1]) [fold] | 100 nM Ag Bound (RU) [2] [RU] | Kd [2] [nM] | koff [2] [s⁻¹] | kon [2] [M⁻¹ s⁻¹] | t1/2 [2] [min] | 100 nM Ag Bound (RU) [3] [RU] | Kd [3] [nM] | koff [3] [s⁻¹] | kon [3] [M⁻¹ s⁻¹] | t1/2 [3] [min] | EC50 (human CD63 [4]) [nM] | binding ratio at 3.7 nM vs NIH3T3 (human CD63 [4]) [fold] | EC50 (human CD63 [5]) [nM] | binding ratio at 3.7 nM vs NIH3T3 (human CD63 [5]) [fold] | 100 nM Ag Bound (RU) [6] [RU] | Kd [6] [nM] | koff [6] [s⁻¹] | kon [6] [M⁻¹ s⁻¹] | further results
H1M12362N (antibody, V domains shown) VH: QVQLVESGGGLVKPGGSLRLSCAASGFIFSDYYINWIRQAPGKGLEWVSYTSSSGSTTYYEDSVKGRFTMSRDNARNLVYLQMNSLRAEDTAAYYCVRDLRYNDGLDVWGQGTTVTVSS VL: DILLTQSPSSLSASVGDRVTITCRASQSIRTYLNWYQQKPGRAPKLLVYAASSLQSGVPSRFSGSGSGTDFTLTISSLQPEDFATYFCQQSYDNPPITFGQGTRLAIK | 0.63 | 283 | 118 | 0.977 | 0.000669 | 685000 | 17 | 32 | 19.5 | 0.0072 | 369000 | 2 | 0.57 | 16 | 0.56 | 174 | 125 | 0.84 | 0.000399 | 477000 | t1/2 [6]: 29 min; 100 nM Ag Bound (RU) [7]: 51 RU; Kd [7]: 12.7 nM; koff [7]: 0.00144 s⁻¹; kon [7]: 113000 M⁻¹ s⁻¹; t1/2 [7]: 8 min
H1M12388N (antibody, V domains shown) VH: QVQLEESGGGVVKAGGSLRLSCAASGFTFSDYYINWIRQAPGKGLEWVSYINNGGYTIYYADSVKGRFTMSRDNAKNSVYLQMNGLRAEDTAFYYCVRDPRSYYGFDYWGQGTLVTVSS VL: DIQMTQSPSSLSASVGDRVTITCRASQSISRFLHWYQQKPGKAPKLLIYGASSLQSGVPSRFSGSGSGTDFTLTISTLQPEDFATYYCQQSYSTPPITFGQGTRLEIK | 0.52 | 434 | 158 | 0.863 | 0.000887 | 1.03e+06 | 13 | 60 | 5.02 | 0.00327 | 651000 | 4 | 0.25 | 31 | 0.3 | 284 | 131 | 0.238 | 0.000173 | 728000 | t1/2 [6]: 67 min; 100 nM Ag Bound (RU) [7]: 59 RU; Kd [7]: 0.72 nM; koff [7]: 0.000587 s⁻¹; kon [7]: 815000 M⁻¹ s⁻¹; t1/2 [7]: 20 min
H1M12386N (antibody, V domains shown) VH: QVQLEESGGGVVKAGGSLRLSCVASGFTFSDYYINWIRQAPGKGLEWVSYINNGGYTIYYADSVKGRFTMSRDNAKNSVYLEMNGLRAEDTAFYYCVRDPRSYYGFDYWGQGTLVTVSS VL: DIQMTQSPSSLSASVGDRVTITCRASQSISSYLNWNQQKPGKAPKLLIYVASSLQSGVPSRFSGSGSGTDFTLTISGLQPEDFAPYYCQQSYITPPITFGQGTRLDIK | 0.52 | 220 | 170 | 0.685 | 0.000631 | 921000 | 18 | 65 | 3.61 | 0.00235 | 650000 | 5 | 0.29 | 16 | 0.31 | 129 | 160 | 0.173 | 0.000113 | 654000 | t1/2 [6]: 102 min; 100 nM Ag Bound (RU) [7]: 65 RU; Kd [7]: 0.676 nM; koff [7]: 0.000365 s⁻¹; kon [7]: 540000 M⁻¹ s⁻¹; t1/2 [7]: 32 min
H2M12387N (antibody, V domains shown, also called H2aM12387N) VH: QVQLEESGGGVVKAGGSLRLSCAASGFTFSDYYMNWIRQAPGKGLEWVSYINNGGYTIYYADSVKGRFTMSRDNAKNSVYLQMNGLRAEDTAFYYCVRDPRSYYGFDYWGQGTLVIVSS VL: DIQMTQSPSSLSASVGDRVTITCRASQSISRFLHWYQQKPGKAPKLLIYGASSLQSGVPSRFSGSGSGTDFTLTISSLQPEDFATYYCQQSYSTPPITFGQGTRLEIK | 0.39 | 228 | 196 | 0.596 | 0.000657 | 1.1e+06 | 18 | 77 | 5.21 | 0.00354 | 679000 | 3 | 0.15 | 18 | 0.29 | 172 | 164 | 0.129 | 0.00011 | 854000 | t1/2 [6]: 105 min; 100 nM Ag Bound (RU) [7]: 74 RU; Kd [7]: 0.994 nM; koff [7]: 0.00054 s⁻¹; kon [7]: 543000 M⁻¹ s⁻¹; t1/2 [7]: 21 min
H2M12452N (antibody, V domains shown, also called H2aM12452N) VH: QVQLQEAGPGLVKPSETLSLTCIVSGGSISGFYWNWIRQPPGKGLEWIGYFLYSGTIDYNPSLKSRVTISVDTSKNQFFLKLSFVTAADTAVYYCVRMGLGANAFDIWGRGTMVTVSS VL: EIVLTQSPGTLSLSPGERATLSCRASQTVSRSFLAWYQQKPGQAPRLLIYGPSSRATGIPDRFSGSGSGTDFTLTISRLEPEDFAVYYCQQYGNSPWTFGQGTKVEIK | 0.61 | 593 | 104 | 1.1 | 0.000857 | 779000 | 13 | 34 | 6.98 | 0.00269 | 385000 | 4 | 0.74 | 37 | 2 | 260 | 91 | 1.87 | 0.000228 | 122000 | t1/2 [6]: 51 min; 100 nM Ag Bound (RU) [7]: 35 RU; Kd [7]: 7.33 nM; koff [7]: 0.000596 s⁻¹; kon [7]: 81300 M⁻¹ s⁻¹; t1/2 [7]: 19 min
H2M12394N (antibody, V domains shown, also called H2aM12394N) VH: QVQLQESGPGLVKPSETLSLTCTVSGGSISSYYWNWIRQSPGKGLEWIGYTKKRSTNYNPSLRSRVTISEDTSKNQFSLKMSSVTAADTAVYYCAKMGWGSHAFDIWGQGTMVTVSS VL: not shown | 0.38 | 61 | 67 | 1.54 | 0.000504 | 327000 | 23 | 19 | 76.7 | 0.00277 | 36200 | 4 | 0.75 | 4 | 1.4 | 50 | 59 | 1.76 | 0.000144 | 81800 | t1/2 [6]: 80 min; 100 nM Ag Bound (RU) [7]: 27 RU; Kd [7]: 9.36 nM; koff [7]: 0.000553 s⁻¹; kon [7]: 59100 M⁻¹ s⁻¹; t1/2 [7]: 21 min
H1M12366N (antibody, V domains shown, also called H3M12366N) VH: QVQLQESGPGLVKPSETLSLTCTVSGGSISSYYWNWIRQSPEKGLEWIGYIYISGTTNYNPSLKSRVTISVDTFKNQFSLKLNSVTAADTAVYYCARMGLGREAFDIWGQGTMVTVSS VL: not shown | 0.83 | 310 | – | – | – | – | – | – | – | – | – | – | 1.8 | 7 | 2 | 107 | – | – | – | – | –
